Reference: the DeepSol protein solubility set

Experiment: soluble on expression in E. coli; label from the status in PepcDB or PDB records

| Sequence | soluble on expression in E. coli |
| --- | --- |
| MDYLIVGAGFTGATLAERLAAAGKRVLVVDRRDHIGGNAYDEMDPHGVLVHRYGPHIFHTNSKKVFDYLSRFTEWRPYYHRVRAVVEGKEVPLPFSLATLRALFSPKLADRLEEKLIARFGYGARVPILRLREEEDPDLRFLADYVYKNVFEGYTLKQWGLRPEELSPSVTARVPVLVSHDTRYFQDAYQAMPKEGYTALFRRMLAHPNIKLLLQADWKEVEGEVKFARLVFTGPIDEFFGYLHGPLPYRSLRFRMELHPGPWAQEVGTVNYPNEHPYTRVTEFKHLTGQDYLPHSTLCYEYPEAYEPGRNEPYYPVPREENEERYRLYLEEAKKLKGVYFAGRLGDYRYYNMDQAVARALKLFEEIVHE | soluble |
| MSLNRQSKAAVPALREISPVKQQVSEEKKEIQEDSSILVDLKGAVQKEGVYKLTASSRVRDVIELAGGLTSEADKHAINFAEKLTDEQVVYVPKQGEEISVLPRSLVSGKKETASKDQSKVHINKASLEELQHIPGIGAKRAQDIIDMRDKLGGFKALEDLRQVSGIGEKTLEKLKDDIFLDEGHHHHHH | soluble |
| MGSDKIHHHHHHMDKLLFGISGIPNGSGNEKFTYETGIDYLKSIGLDAMELPFVRSVNITNKNREGILNKKHEKDFYLSAHGSYFINLNAEENEKQEASLKRIVSGADALKSVEGKSLIFHPGFYLKDSKEETFNTIKENLKKLPDIGVDYRLETTGKPTQFGSLEENVALASEVKTCKLCIDFCHLHARYNGLFKTIEDFDKVLSYVGEKLGEAALNDMHIHMSGINYGIKGEKNHLPFKESDFPYEKCIKSFVKFNIKGCIICESPLLEKDSLLLKSIYEAS | not soluble |
| MGSDKIHHHHHHMLKNDQLDQWDRDNFFHPSTHLAQHARGESANRVIKTASGVFIEDRDGTKLLDAFAGLYCVNVGYGRQEIAEAIADQARELAYYHSYVGHGTEASITLAKMILDRAPKNMSKVYFGLGGSDANETNVKLIWYYNNILGRPEKKKIISRWRGYHGSGLVTGSLTGLELFHKKFDLPVEQVIHTEAPYYFRREDLNQTEEQFVAHCVAELEALIEREGADTIAAFIGEPILGTGGIVPPPAGYWEAIQTVLNKHDILLVADEVVTGFGRLGTMFGSDHYGLEPDIITIAKGLTSAYAPLSGSIVSDKVWKVLEQGTDENGPIGHGWTYSAHPIGAAAGVANLKLLDELNLVSNAGEVGAYLNATMAEALSQHANVGDVRGEGLLCAVEFVKDRDSRTFFDAADKIGPQISAKLLEQDKIIARAMPQGDILGFAPPFCLTRAEADQVVEGTLRAVKAVLG | not soluble |
| MTWQPFYVGTGQAPAGAEEQVVLPPAPPWREFPRRSQHRQFVPPPRLAEAVNAALALRRPLLVTGPAGSGKSTVIEQVAAELALGDVLRWHITSRSSLAEALYRYDALGRIHAQRLEGPGGSDDIAPFLRMGPLGTALLPSARPRALLIDEIDKSDLDLPSDLLDVLERGEFEIPELARYGTDVVPVREHGGERTHLIARGRVQCAEFPFIVMTSNGDRDFPAAFLRRCIRFTMPLPTPETLLRVVEAHMGPEKAAADETGRLITVFLERLTAGESLAVDQLLNAVHLLTGDGAPGDDRRQAIAELILRELSHALEHHHHHH | not soluble |
| MGNWITSTFLRFDLFQRHQPNRFLEYTRVQHSNQSPAYSVRTAAEIVAHQRMKPNHSNDSDTDFSSDDEGCPKMTPHEEQQMFEREQHIAFSGRCHIGDPESCTQLRNEINSRCGPRPSTSNNMEFILNRDLQKRGTSISNPRTVARVLNSHLPNQKRRVDRVATKSFCTQYIQNGTKIVVASQDEKIRFYQRNPDKSKYRSKYMKSDELRVDQCGWSILDTAISLNGDLIAYGTWKDAVFVGKLDFTERQNITWFPIDLNGEPGRDHCAVFCVKFSDSSEQIVCGTSQYSIHVFDVEQRRRIRTIVNAHEDDVNSVCFADLGSNLIYSAGDDGLVKVWDKRAWSDGDVEPVGVFAGHRDGVTHVDSRQDERYLLSNSKDQTIKVWDLRKFSNMSGVEATRACVQSQHWDYRWQPAPPGLCQPVAGDTSVMTLRGHSVLHTLVRANFSPESTGRRYIYTGCARGEVVVYDIMSGTVSRRLKGHTAVVRECDWHPTENEIVSSAWDGVTTVWTWDERQEGVIAPYDHPNISQFGDEDSCDELFQPVKKQCRRQRKTMSSRGHPCSSSSISQN | not soluble |
| MHHHHHHSSGVDLGTENLYFQSMEKTELIQKAKLAEQAERYDDMATCMKAVTEQGAELSNEERNLLSVAYKNVVGGRRSAWRVISSIEQKTDTSDKKLQLIKDYREKVESELRSICTTVLELLDKYLIANATNPESKVFYLKMKGDYFRYLAEVACGDDRKQTIDNSQGAYQEAFDISKKEMQPTHPIRLGLALNFSVFYYEILNNPELACTLAKTAFDEAIAELDTLNEDSYKDSTLIMQLLRDNLTLWTSDSAG | soluble |
| VPDSSTALRILVYSDNVQTRERVMRALGKRLHPDLPDLTYVEVATGPMVIRQMDRGGIDLAILDGEATPTGGMGIAKQLKDELASCPPILVLTGRPDDTWLASWSRAEAAVPHPVDPIVLGRTVLSLLRAPAH | soluble |
| MGSDKIHHHHHHMKNVIKFYEKGSIEILYGKSSHSFPLHSHECFCVGAITKGSALFTINNTKCLLEESMVFIIPPNTGISITANSQYDYITICFKNELKKQVEHILFNKFFLKIKSNDEIFNLCDIFKENNNEKQLLNSILILINSTIATNSLVMETSTNNTVLLICEYIKQTAAKNFSLDTLAESFYLSKYHLIRMFKKEMGVTPYQYYIQAKMGIIRRQIFNGKSETDLAINLNLSDSSHLCKIFKRQMGISIQAYKKNLIRK | not soluble |
| MSLKKNFALEKKKELQEMTNSAVRRVLDFKKDPNKVIELLNFMARSPQYSFKNQMMVSSQYENSNFTMGSRQFKETMGLKVNENATPIKIVAPVMNTFFKRNDKLVQLRFANKEEKEKIKNKEIKTIQNVWYYKLVDVYDITQTNAKPEDFPEYYPDRRYNFYVKNTEVIDDIISANKKLLKDNNIHLIENHTYNQLGTSVGFAGKNLTGDKIVGYRDGLNKTEILHTLLHETTHAFYHQKENPEKTTELKEFEAEMTAYIVAKRFGVDTSEHTIKYVSDWTESMSKIEDIEQSIKTVSMYSSRIINDIEKQIDPVKIKEGHHHHHH | not soluble |
| MKLIFILSIIFLSSLSVAQSPISCAFCMAGLAQINQQVISSPDMEAQMGIQASQGCDQIPVKQTRETCRGSLNTNFNIFYSNFTGQANNSPTQMCINMGMC | not soluble |
| MSKQLLALNIDGALLRSNGKIHQATKDAIEYVKKKGIYVTLVTNRHFRSAQKIAKSLKLDAKLITHSGAYIAEKIDAPFFEKRISDDHTFNIVQVLESYQCNIRLLHEKYSIGNKKKVNSNLLGKALIHPSDPIFYPVQFVESLSDLLMDEPVSAPVIEVYTEHDIQHDITETITKAFPAVDVIRVNDEKLNIVPKGVSKEAGLALVASELGLSMDDVVAIGHQYDDLPMIELAGLGVAMGNAVPEIKRKADWVTRSNDEQGVAYMMKEYFRMQQRKGFLDKFHMKRV | not soluble |
| MKIIAYGARVDEIQYFKQWAKDTGNTLEYHTEFLDENTVEWAKGFDGINSLQTTPYAAGVFEKMHAYGIKFLTIRNVGTDNIDMTAMKQYGIRLSNVPAYSPAAIAEFALTDTLYLLRNMGKVQAQLQAGDYEKAGTFIGKELGQQTVGVMGTGHIGQVAIKLFKGFGAKVIAYDPYPMKGDHPDFDYVSLEDLFKQSDVIDLHVPGIEQNTHIINEAAFNLMKPGAIVINTARPNLIDTQAMLSNLKSGKLAGVGIDTYEYETEDLLNLAKHGSFKDPLWDELLGMPNVVLSPHIAYYTETAVHNMVYFSLQHLVDFLTKGETSTEVTGPAK | soluble |
| MKMNPRCTYCLLSRVHFQSKLSTDDEDLISRTIHECLGVMNKHYSPEAVSSRVATKVHRKCYEVLRDSDPYEVTKKLINQAALKVLPAAKEKIYENSPDDGELFKRAVLASVIANYFDFGIMGFDASEDKFEAAFLKYYEQGLDVDDTPEMLGLLQDVVYIADNCGEILFDAIVFDVIKKLGGNITLVVRGGPILTDVTLEEIKEFEIDKKVDRVMTTGSNAVGVLVEEAPAELLDAMKNATLIISKGMANYETLSEHNFGPIAYMLLTKCECVAEDLGLETGLSVAKLMNFPLEHHHHHH | soluble |
| ATRDFLQRAEAAYKTDGGAAGLGQKAFVKMMQEVCELPSMVAYSLFKRLTGCEAGEEEGAAVPRDTFIKFWTGRGLVTAPPPKRAFDSLRPDGQDYLTFADFWPMMECVLRYHPGLEFLAETQEFQRKYAETVIHRIFYSLNKCGSGRLTFREFRSGELMDALYALDRENDINKILKFFSYEHFYVIYCKFWELDQDHDFQLDKTDLAHYSNCALSYVIVDRIFEEAPRKFKAGTPPGKMCYEDFVWFILSEEDKTTDTALTYWFRCVDLDGDGVIRPREMLYFYEEQLRRLEGWNQEPVQFEDLLCQLHDMLSPAKEGAFTLRDLKRTKPQSGLFFSSLFSLHKFVGFENRDPFAQRAEAAEFTGLSDWDKFAKIEYFRLASEDD | soluble |
| MQIEKMKLSDLKAADYNPRVDLKPGMQEYEKLKQSILEFGFVDPPIYNIQTGNLVGGHQRVAVAKELGLFNEIEVSVVDLPLDKEKALNVALNKISGRWDEEKLSILLNELDDEAVNLTGFDTEEVDSLLASFNYEEDIEKPIIEDDFQVNEFIENHHEAKTKLGQLWKLGNHYLLCGDATKLSDVEKLLQGKKANLVVTDPPYNVAVKSDNKELNESGREKIMNDDMSDEEFDQFLMSVFQNYSNAMRDDSAIYVFHGSSYQREFENSMNAAGIVVRSQCIWVKNNATFGWSQYRWQHEPVFYAHKKKQAPSWYGDRKQTTIWQDDLLEDLPATIWKVPRDDVATYYHPTQKPLSLIAIPVRNSSKRQDIVLDLFGGSGSTLMTCEQLNRICYTLELDPLFCDVIIERFEKSTGIIAELVE | not soluble |
| MRYHIALVGRRNSGKSSLLNMLAGQQISIVSDIKGTTTDAVAKAYELQPLGPVTFYDTAGIDDEGTLGAMRVSATRRVLFRSDMALLVVDEQGLCPSDMALIDEIRQLQMPILMVFNKADICTPKAEDIAFCQNQSLPFIVVSAATGLAGKQLKQLMVELAPAEYKQEPLLAGDLYQAGDVILCVVPIDMAAPKGRLILPQVQILREALDRSAIAMVVKETELAQALSVVTPKLVISDAQAIKQVAAIVPDAVPLTTFSTLFARFKGDLAALATGADALDTLQDGDKVLISEACSHNVQEDDIGRVKLPRWINSYTGKQLEFVVTSGHDFPNDLEQYALVIHCGACMFNRNEMLRRIRECQRRQVPITNYGVAISKLQGVLPRVLTPFNRNPQQLEHHHHHH | soluble |
| MAGPQQQPPYLHLAELTASQFLEIWKHFDADGNGYIEGKELENFFQELEKARKGSGMMSKSDNFGEKMKEFMQKYDKNSDGKIEMAELAQILPTEENFLLCFRQHVGSSTEFMEAWRKYDTDRSGYIEANELKGFLSDLLKKANRPYDEPKLQEYTQTILRMFDLNGDGKLGLSEMSRLLPVQENFLLKFQGMKLTSEEFNAIFTFYDKDRSGYIDEHELDALLKDLYEKNKKEMNIQQLTNYRKSVMSLAEAGKLYRKDLEIVLCSEPPM | not soluble |
| MSTGANRILDDLARLMTDAAGAAQGVRREVEAAFRAQTENWLNSLDVVKREEFEAVKEMAARARDENDALLARIEALEARLAATGPAAADITTGK | not soluble |
| MGSDKIHHHHHHMLSVSSLDGEWNITEVDGQKISTERMPFIGFDVAQKRIYGNSGCNRMMGSFEADSLKPGTLKFGQIGSTRMMCPDMKTEQMVLGALDKVTSFQTVSDKPDVITLCNQDGQPLMTLEKKAAPEVSLSDLSGEWVIELVNGKKIVGTAEVTPFIGFNLDESRIYGNVGCNTINGALMQEDGKPNSLRFDNVATTMMMCPDMETETIVLNALNETKSFSMKDDKVYLLGENGNELLVLKKQ | not soluble |
